In test [1] the target is CD3 molecules of the CD3/TCR complex on mouse T cells (mouse) (UniProt A2KF29). As to the kind of experiment: confocal fluorescence microscopy, NBD-peptide and labelled anti-CD3 antibody on mouse T cells.
The target in test [2] is TLR2 TMD peptide labelled with Rho (TLR2-Rho). As to the kind of experiment: FRET, gp41 TMD-NBD constant at 0.4 µM and TLR2-Rho added at 0.025-0.8 µM, 100 µM LUVs.

In the case of “gp41 TMD conjugated to NBD (gp41 transmembrane domain peptide, NBD-labelled)”, the co-localization percentage in test [1] stood at 58.8%. The percent of energy transfer (FRET) in test [2] was over 60%.
